According to paper PMC4622529:
“And” between values parts separate entries of the source, which are not always exact repeats. Identical values can stand only once. Like-named read-outs stand apart in the source and are kept apart here. One block for each molecule: values may come before it.

Experiments:
Test in all cases: SPR
[1] = biological target: human IgG3 (human)
[2] = biological target: human IgG4 (human)
[3] = biological target: rat FcRn (FcRn/β2m heterodimer, soluble extracellular domain) (rat) (UniProt P13599)
[4] = biological target: mouse FcRn (FcRn/β2m heterodimer, soluble extracellular domain) (mouse) (UniProt Q61559)
[5] = biological target: rat FcRn (FcRn/β2m heterodimer, soluble extracellular domain) (rat) (UniProt P13599); remark: listed apart in the source
[6] = biological target: mouse FcRn (FcRn/β2m heterodimer, soluble extracellular domain) (mouse) (UniProt Q61559); remark: listed apart in the source
[7] = biological target: trastuzumab hIgG1 WT:WT E:R heterodimer (human)
[8] = biological target: trastuzumab hIgG1 I253A:WT E:R heterodimer (human)
[9] = biological target: trastuzumab hIgG1 N434H (homodimer) (human)
[10] = biological target: mouse IgG2a (mouse)
[11] = biological target: trastuzumab hIgG1 N434Y R arm (parental) (human)
[12] = biological target: trastuzumab hIgG1 AAA:N434H E:R heterodimer (human)
[13] = biological target: trastuzumab hIgG1 N434Y (homodimer) (human)
[14] = biological target: trastuzumab hIgG1 wild type (homodimer) (human)
[15] = biological target: trastuzumab hIgG1 WT E arm (parental) (human)
[16] = biological target: trastuzumab hIgG1 AAA:N434Y E:R heterodimer (human)
[17] = biological target: trastuzumab hIgG1 AAA:WT E:R heterodimer (human)
[18] = biological target: trastuzumab hIgG1 WT R arm (parental) (human)
[19] = biological target: trastuzumab hIgG1 N434Y (homodimer) (human); remark: listed apart in the source
[20] = biological target: mouse FcRn (FcRn/β2m heterodimer, soluble extracellular domain) (mouse) (UniProt Q61559); remark: listed apart in the source
[21] = biological target: mouse FcRn (FcRn/β2m heterodimer, soluble extracellular domain) (mouse) (UniProt Q61559); remark: listed apart in the source
[22] = biological target: rat FcRn (FcRn/β2m heterodimer, soluble extracellular domain) (rat) (UniProt P13599); remark: listed apart in the source
[23] = biological target: rhesus monkey IgG2 (rhesus monkey)
[24] = biological target: mouse IgG1 (mouse)
[25] = biological target: mouse IgG3 (mouse)
[26] = biological target: cynomolgus monkey IgG2 (cynomolgus monkey)
[27] = biological target: rhesus monkey IgG1 (rhesus monkey)
[28] = biological target: human IgG2 (category of several hIgG2 molecules) (human)
[29] = biological target: rat IgG2b (rat)
[30] = biological target: mouse IgG2b (mouse)
[31] = biological target: rat IgG2a (panel of unrelated mAbs of subtype rIgG2a) (rat)
[32] = biological target: cynomolgus monkey IgG1 (cynomolgus monkey)
[33] = biological target: human IgG1 (category of several hIgG1 molecules) (human)
[34] = biological target: rat IgG1 (rat)
[35] = biological target: rat IgG2c (rat)
[36] = biological target: rat IgG2a (panel of unrelated mAbs of subtype rIgG2a) (rat); remark: listed apart in the source

Kd [1]: 188 nM and 213 nM and 387 nM | Kd [2]: 258 nM and 266 nM and 450 nM
Molecule: cynomolgus monkey FcRn (FcRn/β2m heterodimer, soluble extracellular domain) (from UniProt Q8SPV9;Q8SPW0) (receptor)

Kd [3]: 67 nM | Kd [4]: 49 nM | Kd [5]: 46 nM | Kd [6]: 54 nM
Molecule: trastuzumab hIgG1 AAA:WT E:R heterodimer (antibody)

Kd [7]: 58 nM | Kd [8]: 58 nM | stoichiometry N [9]: 2 FcRn per IgG | Kd [10]: 490 nM and 931 nM | Kd [11]: 0.47 nM | Kd [1]: 230 nM and 353 nM and 328 nM | stoichiometry N [12]: 1 FcRn per IgG | Kd [2]: 116 nM and 197 nM and 183 nM | Kd [13]: 0.47 nM | stoichiometry N [13]: 2 FcRn per IgG | Kd [14]: 58 nM | stoichiometry N [14]: 2 FcRn per IgG | Kd [15]: 58 nM | Kd [16]: 0.47 nM | stoichiometry N [16]: 1 FcRn per IgG | Kd [17]: 58 nM | stoichiometry N [17]: 1 FcRn per IgG | Kd [18]: 58 nM | Kd [19]: 44.1 nM
Molecule: mouse FcRn (FcRn/β2m heterodimer, soluble extracellular domain) (from UniProt Q61559;P01887) (receptor)

Kd [9]: 9.9 nM | Kd [13]: 4.5 nM | Kd [14]: 84 nM | Kd [19]: 455 nM
Molecule: rat FcRn (FcRn/β2m heterodimer, soluble extracellular domain) (from UniProt P13599;P07151) (receptor)

Kd [1]: 585 nM and 898 nM | Kd [2]: 717 nM and 973 nM
Molecule: human FcRn (FcRn/β2m heterodimer, soluble extracellular domain) (from UniProt P55899;P61769) (receptor)

Kd [3]: 3.5 nM | Kd [4]: 0.35 nM | Kd [5]: 2.7 nM | Kd [6]: 0.28 nM | Kd [20]: 50 nM and 52 nM | Kd [21]: 66 nM
Molecule: trastuzumab hIgG1 AAA:N434Y E:R heterodimer (antibody)

Kd [5]: 3.3 nM | Kd [6]: 0.292 nM | Kd [22]: 460 nM | Kd [20]: 36 nM
Molecule: trastuzumab hIgG1 N434Y (homodimer) (antibody)

Kd [5]: 5.4 nM | Kd [6]: 3.7 nM
Molecule: trastuzumab hIgG1 N434H (homodimer) (antibody)

Kd [3]: 8 nM | Kd [4]: 3.6 nM | Kd [5]: 4.9 nM | Kd [6]: 3.8 nM
Molecule: trastuzumab hIgG1 AAA:N434H E:R heterodimer (antibody)

Kd [5]: 49 nM | Kd [6]: 48 nM
Molecule: trastuzumab hIgG1 wild type (homodimer) (antibody)

Kd [23]: 41 nM and 51 nM | Kd [24]: 501 nM and 567 nM | Kd [25]: 183 nM | Kd [26]: 38 nM and 51 nM | Kd [10]: 97 nM and 150 nM | Kd [27]: 88 nM and 119 nM | Kd [28]: 53 nM and 93 nM | Kd [29]: 186 nM and 248 nM | Kd [1]: 313 nM and 357 nM and 366 nM | Kd [30]: 332 nM and 368 nM | Kd [2]: 123 nM and 149 nM and 145 nM | Kd [31]: 45 nM and 76 nM | Kd [32]: 88 nM and 123 nM | Kd [33]: 68 nM and 135 nM | Kd [34]: 285 nM and 329 nM | Kd [35]: 452 nM and 617 nM | Kd [36]: 44 nM and 69 nM and 55 nM | koff [36]: 0.0119 s⁻¹ | kon [36]: 220000 M⁻¹ s⁻¹
B1: rat FcRn (FcRn/β2m heterodimer, soluble extracellular domain) (receptor)
chain 1: AEPRLPLMYHLAAVSDLSTGLPSFWATGWLGAQQYLTYNNLRQEADPCGAWIWENQVSWYWEKETTDLKSKEQLFLEAIRTLENQINGTFTLQGLLGCELAPDNSSLPTAVFALNGEEFMRFNPRTGNWSGEWPETDIVGNLWMKQPEAARKESEFLLTSCPERLLGHLERGRQNLEWKEPPSMRLKARPGNSGSSVLTCAAFSFYPPELKFRFLRNGLASGSGNCSTGPNGDGSFHAWSLLEVKRGDEHHYQCQVEHEGLAQPLTVDL
chain 2: IQKTPQIQVYSRHPPENGKPNFLNCYVSQFHPPQIEIELLKNGKKIPNIEMSDLSFSKDWSFYILAHTEFTPTETDVYACRVKHVTLKEPKTVTWDRDM
